T1: THAP1ΔQRCRR mutant (deletion of residues 168-172) (human, UniProt Q9NVV9 1-213)
T1 sequence: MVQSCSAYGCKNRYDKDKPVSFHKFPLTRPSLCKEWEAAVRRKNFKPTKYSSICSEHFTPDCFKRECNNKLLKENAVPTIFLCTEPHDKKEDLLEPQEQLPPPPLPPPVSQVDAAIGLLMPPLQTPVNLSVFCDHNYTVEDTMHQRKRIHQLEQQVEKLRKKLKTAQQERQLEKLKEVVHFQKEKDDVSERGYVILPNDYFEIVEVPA

T2: human THAP1 (THanatos-Associated-Protein-1), full length (human, UniProt Q9NVV9 1-213)
T2 construct: these tags are not written into the chain; also called hTHAP1; THAP1 wild type
T2 sequence: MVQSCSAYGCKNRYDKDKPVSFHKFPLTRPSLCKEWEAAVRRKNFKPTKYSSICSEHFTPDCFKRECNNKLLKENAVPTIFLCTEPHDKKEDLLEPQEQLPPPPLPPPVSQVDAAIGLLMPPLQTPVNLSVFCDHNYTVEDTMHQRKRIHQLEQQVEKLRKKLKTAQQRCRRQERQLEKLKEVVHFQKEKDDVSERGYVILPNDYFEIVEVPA

T3: THAP1-C1 deletion mutant (amino acids 90-213) (human, UniProt Q9NVV9 90-213)
T3 construct: Gal4 fusion, in vitro translation product or GFP fusion according to assay; also called THAP1-CL; THAP1ΔTHAP
T3 sequence: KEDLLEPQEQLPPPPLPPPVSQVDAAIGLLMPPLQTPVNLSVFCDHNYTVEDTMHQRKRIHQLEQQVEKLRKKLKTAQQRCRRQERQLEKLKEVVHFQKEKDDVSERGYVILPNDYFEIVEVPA

T4: THAP1-N3 deletion mutant (amino acids 1-192) (human, UniProt Q9NVV9 1-192)
T4 construct: Gal4 fusion, in vitro translation product or GFP fusion according to assay
T4 sequence: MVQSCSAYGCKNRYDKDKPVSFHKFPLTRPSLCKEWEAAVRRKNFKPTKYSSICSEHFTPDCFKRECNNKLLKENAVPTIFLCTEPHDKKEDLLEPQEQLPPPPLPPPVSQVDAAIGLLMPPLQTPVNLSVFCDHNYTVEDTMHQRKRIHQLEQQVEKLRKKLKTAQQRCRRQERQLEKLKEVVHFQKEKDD

T5: THAP1-N2 deletion mutant (amino acids 1-166) (human, UniProt Q9NVV9 1-166)
T5 construct: Gal4 fusion, in vitro translation product or GFP fusion according to assay
T5 sequence: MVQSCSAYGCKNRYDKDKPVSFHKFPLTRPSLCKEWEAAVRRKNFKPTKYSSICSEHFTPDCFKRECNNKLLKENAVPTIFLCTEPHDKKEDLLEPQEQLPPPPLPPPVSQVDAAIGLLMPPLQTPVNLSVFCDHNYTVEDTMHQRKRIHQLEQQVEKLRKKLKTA

T6: chemokine CXCL2 (UniProt P19875 1-107, limits assumed)
T6 construct: 35S-labelled in vitro translation product
T6 sequence (looked up): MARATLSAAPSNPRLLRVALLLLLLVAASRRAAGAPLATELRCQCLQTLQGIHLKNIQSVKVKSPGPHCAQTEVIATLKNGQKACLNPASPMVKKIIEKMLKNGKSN


Experiments:
[1] = biological target: T1, THAP1ΔQRCRR mutant (deletion of …); assay: yeast two-hybrid, SLC/CCL21 bait
[2] = biological target: T2, human THAP1 …; assay: yeast two-hybrid, chemokine bait and THAP1 prey
[3] = biological target: T7, GST (glutathione S-transferase) control protein (UniProt P08515 1-218 = GST); assay: GST pull-down, 35S-labelled in vitro translated SLC/CCL21
T7 construct: Negative control in GST pull-down assays; also called GST beads; GST alone
T7 sequence (P08515 whole entry): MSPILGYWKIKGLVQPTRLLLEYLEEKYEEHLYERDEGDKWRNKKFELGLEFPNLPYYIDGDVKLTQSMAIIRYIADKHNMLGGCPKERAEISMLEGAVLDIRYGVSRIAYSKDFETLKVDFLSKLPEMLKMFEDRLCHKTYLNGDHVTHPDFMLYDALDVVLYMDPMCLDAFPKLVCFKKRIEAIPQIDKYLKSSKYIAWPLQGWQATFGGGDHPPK
Experimental: To confirm the interaction observed in yeast two-hybrid system, we performed in vitro GST pull down assays. THAP1, expressed as a GST-tagged fusion protein and immobilized on glutathione sepharose, was incubated with radiolabeled in vitro translated SLC/CCL21.

[4] = biological target: T3, THAP1-C1 deletion mutant (amino acids …); assay: yeast two-hybrid
[5] = biological target: T4, THAP1-N3 deletion mutant (amino acids …); assay: yeast two-hybrid
[6] = biological target: T5, THAP1-N2 deletion mutant (amino acids …); assay: yeast two-hybrid
chemokine CXCL2 = biological target: T6, chemokine CXCL2; assay: GST pull-down, 35S-labelled in vitro translated molecule

| Binder | binding result [1] | binding result [2] | binding result [3] | binding result [4] | binding result [5] | binding result [6] | binding result (chemokine CXCL2) |
| --- | --- | --- | --- | --- | --- | --- | --- |
| human chemokine SLC/CCL21, mature form (amino acids 24-134) (ligand, GenBank NP-002980; Used as Gal4 fusion in two-hybrid and as 35S-labelled in vitro translation product in pull-downs; also called SLC/6Ckine; SLC/CCL21 wild type) SDGGAQDCCLKYSQRKIPAKVVRSYRKQEPSLGCSIPAILFLPRKRSQAELCADPKELWVQQLMQHLDKTPSPQKPAQGCRKDRGASKTGKKGKGSKGCKRTERSQTPKGP | no binding | binds | no binding | binds | no binding | no binding |  |
| GST-THAP3 181-284 (chemokine-binding domain of THAP3) (other, not shown: GST (glutathione S-transferase of pGEX2T) and its linker at the N end) LPPNAEGHVKQVSPRRPQATEAVGRPTGPAGLRRTPNKQPSDHSYALLDLDSLKKKLFLTLKENEKLRKRLQAQRLVMRRMSSRLRACKGHQGLQARLGPEQQS |  |  |  |  |  |  | no binding |

Source: US20060270596A1 (CENTRE NATIONAL DE LA RECHERCHE SCIENTIFIQUE CNRS, published 2006)
